According to patent US20180127476A1 (Janssen / Centocor, published 2018):
Numbered stars: 1 amine (or outer) side, 2 acyl side, 3 side chain; on linkers, the order of the positions; unused ones are H or OH. Bridge positions count the residues as written; N and C are the ends. Square brackets hold non-standard residues; d marks the D form. Side chains are listed from the residue outwards. * marks the point of attachment. m‑COPhCH2 = meta-toluoyl group on the Ile3 alpha-amine, its methyl linked by thioether to hCys31, O=C(c1cccc(C[*:3])c1)[*:2]; C18 diacid = O=C(O)CCCCCCCCCCCCCCCCC(=O)*; γGlu = O=C(O)[C@H](CCC(=O)[*:2])N[*:1]; Palmitoyl = CCCCCCCCCCCCCCCC(=O)*; hCys = N[C@@H](CCS)C(=O)O; AEEA = NCCOCCOCC(=O)O

T1: human NPY2R Gi-protein coupled receptor (human, UniProt P49146 1-381)
T1 sequence (looked up): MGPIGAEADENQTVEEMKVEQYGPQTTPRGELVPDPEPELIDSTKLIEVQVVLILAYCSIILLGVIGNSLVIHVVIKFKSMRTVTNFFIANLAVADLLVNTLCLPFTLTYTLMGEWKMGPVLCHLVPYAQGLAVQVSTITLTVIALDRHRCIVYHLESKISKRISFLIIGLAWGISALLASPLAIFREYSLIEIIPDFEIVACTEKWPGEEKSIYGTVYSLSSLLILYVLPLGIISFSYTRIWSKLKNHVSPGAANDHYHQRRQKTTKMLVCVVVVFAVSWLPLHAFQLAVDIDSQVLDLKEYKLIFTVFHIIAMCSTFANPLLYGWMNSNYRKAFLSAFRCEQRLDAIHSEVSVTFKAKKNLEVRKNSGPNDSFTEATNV


Molecular target: T1, human NPY2R Gi-protein coupled receptor
Test: cell-based or functional assay

| Binder | Y2R EC50 (nM), inhibition of forskolin-induced cAMP (hY2 assay) [nM] |
| --- | --- |
| GISPEAPGEKASPEELNRYYASLRHYLNEVTRQRY-NH2 (lactam N-29; also: psi-(R35,Y36) reduced amide bond) [Cyclic PYY Analog SEQ ID NO:70] | 0.02 |
| GISPEAPGEK([AEEA-AEEA-γGlu-C18 diacid])ASPEELNRYYASLRHYLNEVTRQRY-NH2 (lactam N-29; also: psi-(R35,Y36) reduced amide bond) [Cyclic PYY Analog SEQ ID NO:72] | 1.75 |
| {m‑COPhCH2}-IAPEAPGEDASPEELNRYYASLRAYLNK([γGlu-Palmitoyl])[hCys]TRQRY-NH2 (bridge N-29; not fully specified (bridges)) [Cyclic PYY Analog SEQ ID NO:21] | 0.49 |
| {m‑COPhCH2}-IEPEAPGEDASPEELNRYYASLRAYLNK([γGlu-Palmitoyl])[hCys]TRQRY-NH2 (bridge N-29; not fully specified (bridges)) [Cyclic PYY Analog SEQ ID NO:22] | 4.4 |
